Assay results published in article PMC10397247.

Experiments:
[1] = target: T1, Core_IINI-es_KKEE; assay: two-hybrid library CCmax; conditions: mean of both orientations;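 also: natural log of median RNA to DNA barcode read ratio; higher means stronger binding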
T1 chain: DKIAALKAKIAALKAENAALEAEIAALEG

[2] = target: T2, P6p; assay: two-hybrid library CCmax; conditions: mean of both orientations;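 also: natural log of median RNA to DNA barcode read ratio; higher means stronger binding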
T2 chain: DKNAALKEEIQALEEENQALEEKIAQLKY

[3] = target: T3, P10bHq; assay: two-hybrid library CCNG1;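 also: natural log of median RNA to DNA barcode read ratio; higher means stronger binding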
T3 chain: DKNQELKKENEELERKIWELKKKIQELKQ

[4] = target: T4, P11bHq; assay: two-hybrid library CCNG1;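 also: natural log of median RNA to DNA barcode read ratio; higher means stronger binding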
T4 chain: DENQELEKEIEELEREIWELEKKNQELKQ

[5] = target: T5, P12bHq; assay: two-hybrid library CCNG1;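 also: natural log of median RNA to DNA barcode read ratio; higher means stronger binding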
T5 chain: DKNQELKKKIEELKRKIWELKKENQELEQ

[6] = target: T6, P1bHq; assay: two-hybrid library CCNG1;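 also: natural log of median RNA to DNA barcode read ratio; higher means stronger binding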
T6 chain: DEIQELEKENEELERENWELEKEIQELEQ

[7] = target: T7, P3bHq; assay: two-hybrid library CCNG1
T7 chain: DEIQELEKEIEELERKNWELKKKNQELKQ

[8] = target: T8, P4bHq; assay: two-hybrid library CCNG1
T8 chain: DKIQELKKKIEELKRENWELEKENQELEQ

[9] = target: T9, P5bHq; assay: two-hybrid library CCNG1
T9 chain: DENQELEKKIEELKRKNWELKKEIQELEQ

[10] = target: T10, P6bHq; assay: two-hybrid library CCNG1
T10 chain: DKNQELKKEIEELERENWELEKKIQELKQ

[11] = target: T11, P7bHq; assay: two-hybrid library CCNG1
T11 chain: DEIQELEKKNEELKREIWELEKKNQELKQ

[12] = target: T12, P8bHq; assay: two-hybrid library CCNG1
T12 chain: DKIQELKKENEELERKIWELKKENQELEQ

[13] = target: T13, P9bHq; assay: two-hybrid library CCNG1
T13 chain: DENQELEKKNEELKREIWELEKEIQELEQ

[14] = target: T14, 4H121-bA; assay: two-hybrid library CCNG1
T14 chain: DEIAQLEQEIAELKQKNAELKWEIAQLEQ

[15] = target: T15, 4H182-bA; assay: two-hybrid library CCNG1
T15 chain: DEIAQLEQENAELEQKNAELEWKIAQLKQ

[16] = target: T16, 4H2134-bA; assay: two-hybrid library CCNG1
T16 chain: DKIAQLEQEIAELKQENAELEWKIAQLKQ

[17] = target: T17, 4H2143-bA; assay: two-hybrid library CCNG1
T17 chain: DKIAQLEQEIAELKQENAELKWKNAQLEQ

[18] = target: T18, 4H2223-bA; assay: two-hybrid library CCNG1
T18 chain: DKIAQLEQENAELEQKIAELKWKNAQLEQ

[19] = target: T19, 4H2438-bA; assay: two-hybrid library CCNG1
T19 chain: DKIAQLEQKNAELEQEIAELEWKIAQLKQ

[20] = target: T20, 4H2444-bA; assay: two-hybrid library CCNG1
T20 chain: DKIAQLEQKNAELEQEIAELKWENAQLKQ

[21] = target: T21, 4H2473-bA; assay: two-hybrid library CCNG1
T21 chain: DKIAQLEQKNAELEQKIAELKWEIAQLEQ

[22] = target: T22, 4H2503-bA; assay: two-hybrid library CCNG1
T22 chain: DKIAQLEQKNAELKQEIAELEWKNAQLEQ

[23] = target: T23, 4H2588-bA; assay: two-hybrid library CCNG1
T23 chain: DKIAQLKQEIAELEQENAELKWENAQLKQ

[24] = target: T24, 4H2692-bA; assay: two-hybrid library CCNG1
T24 chain: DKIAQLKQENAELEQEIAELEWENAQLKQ

[25] = target: T25, 4H2717-bA; assay: two-hybrid library CCNG1
T25 chain: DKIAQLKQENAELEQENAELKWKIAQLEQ

[26] = target: T26, 4H2839-bA; assay: two-hybrid library CCNG1
T26 chain: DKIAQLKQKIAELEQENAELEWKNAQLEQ

[27] = target: T27, 4H2915-bA; assay: two-hybrid library CCNG1
T27 chain: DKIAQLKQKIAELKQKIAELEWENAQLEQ

[28] = target: T28, 4H3057-bA; assay: two-hybrid library CCNG1
T28 chain: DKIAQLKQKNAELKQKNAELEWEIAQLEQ

[29] = target: T29, 4H319-bA; assay: two-hybrid library CCNG1
T29 chain: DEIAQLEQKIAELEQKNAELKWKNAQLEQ

[30] = target: T30, 4H3277-bA; assay: two-hybrid library CCNG1
T30 chain: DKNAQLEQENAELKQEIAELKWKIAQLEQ

[31] = target: T31, 4H348-bA; assay: two-hybrid library CCNG1
T31 chain: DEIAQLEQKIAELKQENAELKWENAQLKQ

[32] = target: T32, 4H40-bA; assay: two-hybrid library CCNG1
T32 chain: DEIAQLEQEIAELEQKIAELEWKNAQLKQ

[33] = target: T33, 4H477-bA; assay: two-hybrid library CCNG1
T33 chain: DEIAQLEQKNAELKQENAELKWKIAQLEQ

[34] = target: T34, 4H492-bA; assay: two-hybrid library CCNG1
T34 chain: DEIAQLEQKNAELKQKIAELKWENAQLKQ

[35] = target: T35, 4H741-bA; assay: two-hybrid library CCNG1
T35 chain: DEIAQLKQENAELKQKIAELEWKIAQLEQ

[36] = target: T36, 4H1347-bN; assay: two-hybrid library CCNG1
T36 chain: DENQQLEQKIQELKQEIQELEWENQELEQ

[37] = target: T37, 4H145-bN; assay: two-hybrid library CCNG1
T37 chain: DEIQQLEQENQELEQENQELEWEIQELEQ

[38] = target: T38, 4H2619-bN; assay: two-hybrid library CCNG1
T38 chain: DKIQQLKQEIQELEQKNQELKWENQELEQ

[39] = target: T39, 4H2691-bN; assay: two-hybrid library CCNG1
T39 chain: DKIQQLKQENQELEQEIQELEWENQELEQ

[40] = target: T40, 4H3070-bN; assay: two-hybrid library CCNG1
T40 chain: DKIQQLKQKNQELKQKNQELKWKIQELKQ

[41] = target: T41, 4H342-bN; assay: two-hybrid library CCNG1
T41 chain: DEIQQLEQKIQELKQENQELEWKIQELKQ

[42] = target: T42, 4H3632-bN; assay: two-hybrid library CCNG1
T42 chain: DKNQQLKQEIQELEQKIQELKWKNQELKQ

[43] = target: T43, 4H496-bN; assay: two-hybrid library CCNG1
T43 chain: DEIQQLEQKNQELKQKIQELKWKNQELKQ

Binder: DEIAALEAEIAALEAKNAALKAKIAALKG [Core_IINI-es_EEKK]
- interaction score [1]: 2.25

Binder: DENAALEEKIAQLKQKNAALKEEIQALEY [P5p]
- interaction score [2]: 1.9

Binder: DKNQELKKENEELERKIWELKKKIQELKQ [P10bHq]
- interaction score [3]: -0.704
- interaction score [4]: -1.18
- interaction score [5]: 1.08
- interaction score [6]: 1.43
- interaction score [7]: -0.901
- interaction score [8]: 0.266
- interaction score [9]: -0.0841
- interaction score [10]: 1.3
- interaction score [11]: 1.54
- interaction score [12]: -0.382
- interaction score [13]: 1

Binder: DEIAQLEQEIAELKQKNAELKWEIAQLEQ [4H121-bA]
- interaction score [14]: -0.103
- interaction score [15]: -1.13
- interaction score [16]: 1.92
- interaction score [17]: -0.624
- interaction score [18]: 0.764
- interaction score [19]: 1.56
- interaction score [20]: -3.87
- interaction score [21]: -1.11
- interaction score [22]: -1.32
- interaction score [23]: -0.283
- interaction score [24]: -0.366
- interaction score [25]: -0.497
- interaction score [26]: 0.693
- interaction score [27]: -0.0952
- interaction score [28]: 0.0584
- interaction score [29]: -1.51
- interaction score [30]: -1.51
- interaction score [31]: -1.19
- interaction score [32]: -0.579
- interaction score [33]: -1.12
- interaction score [34]: -1.44
- interaction score [35]: -1.09

Binder: DENQQLEQKIQELKQEIQELEWENQELEQ [4H1347-bN]
- interaction score [36]: -0.341
- interaction score [37]: -0.341
- interaction score [38]: -1.17
- interaction score [39]: -0.113
- interaction score [40]: 0.122
- interaction score [41]: -0.286
- interaction score [42]: 1.6
- interaction score [43]: -0.299
